This note sets out measurements from patent publication US20240116985A1, “STAPLED PEPTIDES AND METHODS THEREOF” (priority 2020, published 2024).

Starred links: 1 amine or outer side, 2 acyl side, 3 side chain; linkers in the order of their positions; H or OH if unused. Positions of bridges follow the written chain, without caps; N, C: chain ends. Non-standard residues stand in square brackets, D forms with d. Primed or numbered codes have the meaning given here. PyrS2″ = (S)-3-amino-1-((pent-4-en-1-yloxy)carbonyl)pyrrolidine-3-carboxylic acid (stapling residue), C=CCCCOC(=O)N1CC[C@@](N[*:1])(C(=O)[*:2])C1; B5(18) = 2,2-bis(4-pentenyl)glycine (2-amino-2-(pent-4-en-1-yl)hept-6-enoic acid), stitching residue, C=CCCCC(CCCC=C)(N[*:1])C(=O)[*:2]; B5(5) = 2,2-bis(4-pentenyl)glycine, 2-amino-2-(pent-4-en-1-yl)hept-6-enoic acid (stitching residue), C=CCCCC(CCCC=C)(N[*:1])C(=O)[*:2]; TfeGA = (S)-2-amino-3-((carboxymethyl)(2,2,2-trifluoroethyl)amino)propanoic acid, O=C([C@H](CN(CC(=O)[*:3])CC(F)(F)F)N[*:1])[*:2]; B5(3) = 2,2-bis(4-pentenyl)glycine (stitching residue), C=CCCCC(CCCC=C)(N[*:1])C(=O)[*:2]; B5 = 2-amino-2-(pent-4-en-1-yl)hept-6-enoic acid, C=CCCCC(CCCC=C)(N[*:1])C(=O)[*:2]; Dip = N[C@H](C(=O)O)C(c1ccccc1)c1ccccc1; Phe(2-Cl) = N[C@@H](Cc1ccccc1Cl)C(=O)O; Bta = N[C@@H](Cc1csc2ccccc12)C(=O)O; αAllylPro = C=CC[C@@]1(C(=O)O)CCCN1; tBuAla = CC(C)(C)C[C@H](N)C(=O)O; 3Thi = N[C@@H](Cc1ccsc1)C(=O)O; Cha = N[C@@H](CC1CCCCC1)C(=O)O; S8 = C=CCCCCCC[C@](C)(N)C(=O)O

B1: I-1011 (peptide)
peptide: Ac-[αAllylPro]D[tBuAla][B5(18)]D[TfeGA]KAFN[PyrS2″][Phe(2-Cl)][Bta]Q-NH2
modifications: staple 1-4, 4-11
B2: I-1002 (peptide)
peptide: Ac-[αAllylPro]D[tBuAla][B5(18)]D[TfeGA]ALFN[PyrS2″][Phe(2-Cl)][Bta]Q-NH2
modifications: staple 1-4, 4-11
B3: I-1008 (peptide)
peptide: Ac-[αAllylPro]D[tBuAla][B5(18)]D[TfeGA]FAFN[PyrS2″][Phe(2-Cl)][Bta]Q-NH2
modifications: staple 1-4, 4-11
B4: I-1004 (peptide)
peptide: Ac-[αAllylPro]D[tBuAla][B5(18)]D[TfeGA]ASFN[PyrS2″][Phe(2-Cl)][Bta]Q-NH2
modifications: staple 1-4, 4-11
B5: I-1017 (peptide)
peptide: Ac-[αAllylPro]D[tBuAla][B5(18)]DDAAFS[PyrS2″][Phe(2-Cl)][Bta]Q-NH2
modifications: staple 1-4, 4-11
B6: I-1016 (peptide)
peptide: Ac-[αAllylPro]D[tBuAla][B5(18)]DNAAFT[PyrS2″][Phe(2-Cl)][Bta]S-NH2
modifications: staple 1-4, 4-11
B7: I-1019 (peptide)
peptide: Ac-[αAllylPro]D[tBuAla][B5(18)]DDAAFS[PyrS2″][Phe(2-Cl)][Bta]S-NH2
modifications: staple 1-4, 4-11
B8: I-1007 (peptide)
peptide: Ac-[αAllylPro]D[tBuAla][B5(18)]D[TfeGA]LAFN[PyrS2″][Phe(2-Cl)][Bta]Q-NH2
modifications: staple 1-4, 4-11
B9: I-1010 (peptide)
peptide: Ac-[αAllylPro]D[tBuAla][B5(5)]D[TfeGA]IAFN[PyrS2″][Phe(2-Cl)][Bta]Q-NH2
modifications: staple 1-4, 4-11
B10: I-705 (peptide)
peptide: Ac-[αAllylPro]D[tBuAla][B5(3)]D[TfeGA]AAFN[S8][3Thi][Bta]H-NH2
modifications: staple 1-4, 4-11
B11: I-709 (peptide)
peptide: Ac-[αAllylPro]D[Cha][B5(3)]D[TfeGA]AAFN[S8][3Thi][Bta]H-NH2
modifications: staple 1-4, 4-11
B12: I-725 (peptide)
peptide: Ac-[αAllylPro]DI[B5]DEAA[Dip]Q[S8]F[Bta]Q-NH2
modifications: staple 1-4, 4-11
B13: I-721 (peptide)
peptide: Ac-[αAllylPro]DI[B5]DEAAFN[S8][3Thi][Bta]-NH2
modifications: staple 1-4, 4-11
B14: I-719 (peptide)
peptide: Ac-[αAllylPro]D[tBuAla][B5]DEAAFN[S8][3Thi][Bta]-NH2
modifications: staple 1-4, 4-11
B15: I-722 (peptide)
peptide: Ac-[αAllylPro]DI[B5]DEAA[Cha]Q[S8]F[Bta]Q-NH2
modifications: staple 1-4, 4-11
B16: I-712 (peptide)
peptide: Ac-[αAllylPro]D[tBuAla][B5(3)]DEAAFN[S8]F[Bta]-NH2
modifications: staple 1-4, 4-11

Chain of Bcat-Halo (P35222 whole entry): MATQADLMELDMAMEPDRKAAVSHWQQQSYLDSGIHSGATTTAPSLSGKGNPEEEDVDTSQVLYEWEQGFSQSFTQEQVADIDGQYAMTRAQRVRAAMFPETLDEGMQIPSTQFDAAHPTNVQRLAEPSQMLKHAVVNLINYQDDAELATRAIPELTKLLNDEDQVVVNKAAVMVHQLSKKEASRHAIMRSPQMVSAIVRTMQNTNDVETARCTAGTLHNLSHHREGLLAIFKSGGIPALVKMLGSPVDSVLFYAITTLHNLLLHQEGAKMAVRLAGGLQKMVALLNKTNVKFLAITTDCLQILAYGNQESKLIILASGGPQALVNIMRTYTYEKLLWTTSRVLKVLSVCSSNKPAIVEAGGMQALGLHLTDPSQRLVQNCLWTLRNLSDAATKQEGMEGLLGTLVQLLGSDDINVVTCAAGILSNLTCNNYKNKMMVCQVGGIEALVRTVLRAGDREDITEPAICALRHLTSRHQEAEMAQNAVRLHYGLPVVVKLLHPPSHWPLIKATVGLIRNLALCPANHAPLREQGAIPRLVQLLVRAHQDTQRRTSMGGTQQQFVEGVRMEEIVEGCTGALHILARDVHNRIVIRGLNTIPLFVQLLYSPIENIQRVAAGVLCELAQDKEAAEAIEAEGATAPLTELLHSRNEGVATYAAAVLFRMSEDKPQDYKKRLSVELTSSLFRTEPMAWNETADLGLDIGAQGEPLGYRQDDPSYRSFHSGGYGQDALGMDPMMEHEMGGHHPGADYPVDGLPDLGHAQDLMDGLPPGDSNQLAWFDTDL

The first test addresses Bcat-Halo (UniProt P35222). Put plainly: NanoBRET Abs IC50, Bcat-Halo/TCF4-Luc in HEK293 cells.
B1 gave an IC50 of 20800 nM.
Same read-out and setting: for B2 the value was 29800 nM; for B3, 14000 nM; for B4, 10600 nM.
Still for that read-out and setting: for B5 the value was 8900 nM.
B6 came in with an IC50 of 21400 nM.
B7: the IC50 came out at 9600 nM.
On the same count and under the same terms, then B8, with 24900 nM.
The same measure, in the same setting: then B9, with 13300 nM.

The target of another test is full-length beta-Catenin (Uniprot ID P35222) (Homo sapiens (Human)) (UniProt P35222). Put plainly: fluorescence polarization competition; displaces 5FAM-TCF4(10-53) from full-length beta-catenin. (In general: Fluorescence polarisation rises when a labelled molecule tumbles more slowly, as on binding a larger partner.)
Target sequence in this assay (P35222 2-781 limits assumed): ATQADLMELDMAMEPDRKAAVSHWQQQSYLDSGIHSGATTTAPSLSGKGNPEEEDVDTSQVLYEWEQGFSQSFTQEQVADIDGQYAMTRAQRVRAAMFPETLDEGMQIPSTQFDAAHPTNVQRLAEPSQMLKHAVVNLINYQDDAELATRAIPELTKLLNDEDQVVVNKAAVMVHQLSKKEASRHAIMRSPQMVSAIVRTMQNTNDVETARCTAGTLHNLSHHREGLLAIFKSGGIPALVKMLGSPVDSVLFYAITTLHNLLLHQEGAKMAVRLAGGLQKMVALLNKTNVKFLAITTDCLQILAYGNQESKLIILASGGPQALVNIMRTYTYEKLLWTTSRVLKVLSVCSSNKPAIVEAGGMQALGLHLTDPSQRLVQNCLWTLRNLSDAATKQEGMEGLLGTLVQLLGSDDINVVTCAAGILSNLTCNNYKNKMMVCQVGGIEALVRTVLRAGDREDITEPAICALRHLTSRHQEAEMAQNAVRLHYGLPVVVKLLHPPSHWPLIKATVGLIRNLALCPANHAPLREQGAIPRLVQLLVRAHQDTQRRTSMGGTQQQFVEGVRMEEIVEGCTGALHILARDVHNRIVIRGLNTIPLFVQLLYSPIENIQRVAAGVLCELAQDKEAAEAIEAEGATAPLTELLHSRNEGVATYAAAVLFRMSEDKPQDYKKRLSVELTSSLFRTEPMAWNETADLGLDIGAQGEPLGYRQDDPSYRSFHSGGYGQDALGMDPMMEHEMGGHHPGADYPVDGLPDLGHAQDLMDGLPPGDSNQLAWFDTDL
As to B1, the EC50 stood at 5 nM.
Same read-out and setting: then B2, with 9 nM; and B3, with 9 nM; and B4, with 5 nM.
Still for that read-out and setting: then B5, with 5 nM; and B6, with 8 nM; and B7, with 5 nM.
B8 registered an EC50 of 6 nM.
B9 returned an EC50 of 8 nM.

Another test shares this target. Put plainly: fluorescence polarization competition; 10 nM full-length beta-catenin + 10 nM 5FAM-TCF4(10-53) probe.
Target sequence in this assay (P35222 whole entry, one chain of several): as the sequence (P35222 whole entry) above
Regarding B1, the IC50 is 5 nM.
In the case of B2, the IC50 amounted to 9 nM.
In the case of B3, the IC50 turned out to be 9 nM.
Regarding B4, the IC50 was found to be 5 nM.
Still for that read-out and setting: then B5, with 5 nM.
As for B6, the IC50 amounted to 8 nM.
On to B8, for which the IC50 is 6 nM.
For the molecule B9, the IC50 was found to be 8 nM.

The target is the same in the next test. Put plainly: fluorescence polarization competition; full-length beta-catenin + 5FAM-TCF4(10-53) probe; peptide titrated.
Target sequence in this assay (P35222 2-781 limits assumed): as the sequence (P35222 2-781 limits assumed) above
B10: the EC50 was 58 nM.
On the same count and under the same terms, for B11 the value was 54 nM.

Another test shares this target. Put plainly: fluorescence polarization competition; peptide titrated against full-length beta-catenin + 5FAM-TCF4(10-53).
Target sequence in this assay (P35222 whole entry, one chain of several): as the sequence (P35222 whole entry) above
Turning to B12, the IC50 came out at 5000 nM.
For B13, the IC50 stood at 46 nM.
Still for that read-out and setting: then B14, with 38 nM; and B15, with 1130 nM.
The same measure, in the same setting: for B16 the value was 92 nM; for B10, 58 nM.
On the same count and under the same terms, for B11 the value was 54 nM.

The target is the same in another test. Nature of the test: fluorescence polarization competition; full-length beta-catenin with 5FAM-labeled TCF4 residues 10-53 probe as competitor.
Target sequence in this assay (P35222 whole entry, one chain of several): as the sequence (P35222 whole entry) above
In turn, B12 displayed a concentration for a half-maximal effect (EC50) of 5000 nM.
As to B13, the EC50 is 46 nM.
Same read-out and setting: for B14 the value was 38 nM.
B15 showed an EC50 of 1130 nM.
B16 displayed an EC50 of 92 nM.

Broadly, the IC50 is the concentration at which inhibition is half-maximal. What is called EC50 is the concentration giving half of the maximal effect.
